Consider 37 molecules from US20120094909A1 (Bristol-Myers Squibb, published 2012).

Positions count from the first letter of the chain named. Names and notes keep the numbering of the source.

One may read the Kd as the equilibrium constant for the complex coming apart. Higher therefore signals lower affinity. What is called koff is the first-order rate constant of dissociation. A lower koff goes with slow dissociation. As a reminder, the kon is a measure of how fast the partners come together. In general, EC50 refers to the concentration giving half of the maximal effect. High values mean a less potent agent, low ones a more potent agent.

B1: 2382D08 (designed binder)
chain: MGVSDVPRDLEVVAATPTSLLISWDAPADGYGYYRITYGETGGNSPVQEFTVPVSKGTATISGLKPGVDYTITVYAVEFPFPGSGYYHRPISINYRTEIDKPSQHHHHHH
B2: 1784F03-m1 (designed binder)
chain: B1 chain with A28I, D29H, G30A, V54G, K56E, F79Y, P80T, P82K, G83H
B3: 1784F03-m2 (designed binder)
chain: B1 chain with D29H, G30A, V54G, F79Y, P80T, P82K, G83H
B4: 1784F03-m3 (designed binder)
chain: B1 chain with D29V, G30T, V54G, G57S, F79Y, P80T, P82K, G83H
B5: 2451F03 (designed binder)
chain: B1 chain with A26P, D29E, P80N
B6: 2451H01 (designed binder)
chain: B1 chain with D29A, F79Y, P80D
B7: 2382F08 (designed binder)
chain: B1 chain with D29E, G30A, P80T, F81Y
B8: 2451A02 (designed binder)
chain: B1 chain with D29A
B9: 2011B11 (designed binder)
chain: MGVSDVPRDLEVVAATPTSLLISWAPPSDAYGYYRITYGETGGNSPVQEFTVPIGKGTATISGLKPGVDYTITVYAVEYPYSHAGYYHRPISINYRTEIDKPSQHHHHHH
B10: 2382E09 (designed binder)
chain: B1 chain with D29E, G30A, F79Y, P80D
B11: 2451D05 (designed binder)
chain: B1 chain with D29G, G30A, P80D
B12: 2451B02 (designed binder)
chain: B1 chain with D29A, G30A, P80D, F81Y
B13: 2451B05 (designed binder)
chain: B1 chain with D29G, V54S, P80D, F81Y
B14: 2382H11 (designed binder)
chain: B1 chain with S55F, P80D, F81Y
B15: 2382F09 (designed binder)
chain: B1 chain with D29A, G30A, F79Y, P80D
B16: 2451G01 (designed binder)
chain: B1 chain with D29G, V54S, P80D
B17: 2382B08 (designed binder)
chain: B1 chain with G30A, V54S, P80A, S84A
B18: 2382C11 (designed binder)
chain: B1 chain with D29G, F79Y, P80D, P82A
B19: 2011H05(V23D) (designed binder)
chain: B9 chain with A25D, P27S, D29H, I54V, K56V, P80A, Y81F, S82E, H83G
B20: 2382B11 (designed binder)
chain: B1 chain with D29A, G30A, F79Y, P80D, P82A
B21: 2011H05(V23E) (designed binder)
chain: B9 chain with A25E, P27S, D29H, I54V, K56V, P80A, Y81F, S82E, H83G
B22: 2382H07 (designed binder)
chain: B1 chain with G30A, V54G, P80D
B23: 1923B02(N82I) (designed binder)
chain: MGVSDVPRDLEVVAATPTSLLISWTPPPKGYGYYRITYGETGGNSPVQEFTVPVGEGTATISGLKPGVDYTITVYAVEYTYIGAGYYHRPISINYRTGSGSHHHHHH
B24: 1923B02(N82E) (designed binder)
chain: B23 chain with I82E
B25: 1922G04(R25D) (designed binder)
chain: B23 chain with T25D, P28S, K29H, G30A, V54I, E56K, T80P, Y81W, I82K, A84S
B26: 1922G04(R25S) (designed binder)
chain: B23 chain with T25S, P28S, K29H, G30A, V54I, E56K, T80P, Y81W, I82K, A84S
B27: 1923B02(T80A) (designed binder)
chain: B23 chain with T80A, I82N
B28: 1922G04(R25E) (designed binder)
chain: B23 chain with T25E, P28S, K29H, G30A, V54I, E56K, T80P, Y81W, I82K, A84S
B29: ATI001168 (designed binder)
chain: B9 chain with A25E, D29H, Y81W, S82K, H83G, A84S
B30: 2971A03 (designed binder)
chain: B9 chain with A25D, A30D, Y79F, Y81W, S82P
notes: Anti-PCSK9 Adnectin, His6-tagged
B31: ATI001175 (designed binder)
chain: B9 chain with A25D, D29H, Y81W, S82K, H83G, A84S
B32: 2971E02 (designed binder)
chain: B9 chain with A25D, P26A, A30D, Y79F, Y81W, S82P
notes: as for B30
B33: 2971A09 (designed binder)
chain: B1 chain with G30D, V54I, S55G, F81W, G83H, S84A
notes: as for B30
B34: ATI001114 (designed binder)
chain: MGVSDVPRDLEVVAATPTSLLISWVPPSDDYGYYRITYGETGGNSPVQEFTVPIGKGTATISGLKPGVDYTITVYAVEFPWPHAGYYHRPISINYRTGSGCHHHHHH
modifications: PEGylated on the cysteine of the C-terminal GSGC tail (two-branched 40 kDa PEG)
notes: PEGylated version of the 2013E01 Adnectin, His6-tagged; also called ATI1114
B35: ATI001117 (designed binder)
chain: B23 chain with T25V, P27S, P28S, K29H, G30A, E56V, T80A, Y81F, I82E, S101C
modifications: PEGylated on the cysteine of the C-terminal tail (marked by asterisk in Table 5 as having been pegylated; PEG not specified)
notes: Anti-PCSK9 Adnectin, cysteine mutant of 2011H05, His6-tagged; also called 2011H05 Cys mut
B36: ATI001119 (designed binder)
chain: MGVSDVPRDLEVVAATPTSLLISWRPPSNGHGYYRITYGETGGNSPVQEFTVPVNEGTATISGLKPGVDYTITVYAVEFPFKWSGYYHRPISINYRTGSGCHHHHHH
modifications: PEGylated on the cysteine of the C-terminal tail (marked by asterisk in Table 5 as having been pegylated; PEG not specified)
notes: Anti-PCSK9 Adnectin, cysteine mutant of 2012A04, His6-tagged; also called 2012A04 Cys mut
B37: 2451B06 (designed binder)
chain: MGVSDVPRDLEVVAATPTSLLISWDAPADGGYGYYRITYGETGGNSPVQEFTVPVSKGTATISGLKPGVDYTITVYAVEFDFPGAGYYHRPISINYRTEIDKPSQHHHHHH

For one test, the target named is T1, human PCSK9 (proprotein convertase subtilisin kexin type 9) (human, UniProt Q8NBP7 31-692). In words: cell-based or functional assay.
Consider B1, for which the “LDLR Depletion (% inhibition at 75 nM)” value is 107%.
On to B2, for which the “LDLR Depletion EC50” value was above 2000 nM.
Still for that read-out and setting: to B3 belongs above 2000 nM; to B4, above 2000 nM.
As to B5, the “LDLR Depletion (% inhibition at 75 nM)” value was 113%.
On the same count and under the same terms, as for B6, the figure is 95.8%; as for B7, 105%.
For the molecule B8, the “LDLR Depletion (% inhibition at 75 nM)” value is 106%.
Turning to B9, the “LDLR Depletion (% inhibition at 75 nM)” value worked out at 144%.
On the same count and under the same terms, as for B10, the figure is 97.2%; as for B11, 115%.
On the same count and under the same terms, to B12 belongs 71.4%; to B13, 91.7%.
The same measure, in the same setting: to B14 belongs 117%.
Take B15: the “LDLR Depletion (% inhibition at 75 nM)” value was 110%.
For the molecule B16, the “LDLR Depletion (% inhibition at 75 nM)” value was 90.8%.
As for B17, the “LDLR Depletion (% inhibition at 75 nM)” value is 107%.
Same read-out and setting: as for B18, the figure is 82.9%.
For the molecule B19, the “LDLR Depletion EC50” value was 18 nM.
As for B20, the “LDLR Depletion (% inhibition at 75 nM)” value amounted to 88.8%.
Regarding B21, the “LDLR Depletion EC50” value turned out to be 12 nM.
On to B22, for which the “LDLR Depletion (% inhibition at 75 nM)” value was 86.2%.
As to B23, the “LDLR Depletion EC50” value came to 14 nM.
Consider B24, for which the “LDLR Depletion EC50” value amounted to 28 nM.
Still for that read-out and setting: as for B25, the figure is 29 nM; as for B26, 21 nM.
Still for that read-out and setting: to B27 belongs 42 nM.
Same read-out and setting: to B28 belongs 29 nM.

The target of another test is T2, human PCSK9 (proprotein convertase subtilisin kexin type 9) (human, UniProt Q8NBP7 31-692).
T2 construct: Directly immobilized (SPR ProteOn), biotinylated (BLI), or in solution, depending on the assay; also called hPCSK9
In words: BLI, biotinylated hPCSK9 on sensor tips. The method, then: Tips were then immersed into a buffer-only well for observation of Adnectin dissociation. Experiments were performed in a temperature controlled environment at either 25 or 37° C., and the oscillation speed was set at 1500 rpm.
Binding interaction analysis was performed using proprietary software from Fortebio (Fortebio Data Analysis Software version 6.3.0.36). Global fits were performed for all samples, using a 1:1 binding model. The nature of these global fits constrained all values of concentration to a single pair of association and dissociation rates that were themselves constrained to each other. Affinities (KD), association and dissociation rates were averaged over the various loading levels used in the analysis.
A general note: BLI is a label-free optical method that tracks binding on a fibre tip over time.
For B29, the Kd was found to be 0.586 nM, the koff stood at 0.000333 s⁻¹ and the on-rate (kon) is 583000 M⁻¹ s⁻¹.
In the same order, the values of B30 are 0.806 nM, 0.00042 s⁻¹ and 574000 M⁻¹ s⁻¹.
For B31, in that order: 0.543 nM, 0.000352 s⁻¹ and 656000 M⁻¹ s⁻¹.
As to B32, the dissociation constant Kd came out at 1.78 nM, the off-rate (koff) was found to be 0.000555 s⁻¹ and the kon turned out to be 355000 M⁻¹ s⁻¹.
In the same order, the values of B33 are 2.79 nM, 0.00105 s⁻¹ and 399000 M⁻¹ s⁻¹.
In the same order, the values of B34 are 4.88 nM, 0.000395 s⁻¹ and 80700 M⁻¹ s⁻¹.
On to B35, for which the Kd worked out at 0.554 nM, the koff is 5.07e-05 s⁻¹ and the kon came out at 145000 M⁻¹ s⁻¹.
In turn, B36 registered a Kd of 5.3 nM, a koff of 0.000445 s⁻¹ and a kon of 81900 M⁻¹ s⁻¹.

The next test addresses T1, human PCSK9 (proprotein convertase …). In words: PCSK9:EGFA FRET, competitor EGFA peptide.
Turning to B37, the 50% effective concentration (EC50) was 4.5 nM.
Still for that read-out and setting: as for B1, the figure is 3.1 nM; as for B5, 2.8 nM.
As to B6, the response was half-maximal at 2.8 nM (EC50).
Still for that read-out and setting: as for B7, the figure is 2.5 nM.
Same read-out and setting: as for B8, the figure is 3.2 nM; as for B9, 1.7 nM.
The same measure, in the same setting: to B10 belongs 6.2 nM.
The molecule B11 returned an EC50 of 2.8 nM.
In turn, B12 registered a half-maximal effective concentration (EC50) of 5.3 nM.
The same measure, in the same setting: as for B13, the figure is 6.3 nM; as for B14, 2.9 nM.
Same read-out and setting: as for B15, the figure is 3.1 nM; as for B16, 3.8 nM; as for B17, 2.9 nM.
The same measure, in the same setting: as for B18, the figure is 3.7 nM; as for B19, 5.5 nM; as for B20, 2.9 nM.
B21 registered an EC50 of 7.4 nM.
Same read-out and setting: to B22 belongs 2.7 nM.
Same read-out and setting: as for B25, the figure is 2.5 nM; as for B28, 3.5 nM.
